Experimental data from the DeepSol protein solubility set.

Test: soluble on expression in E. coli; label from the status in PepcDB or PDB records

| Sequence | soluble on expression in E. coli |
| --- | --- |
| MPSYKLTYFAVRGLAEPARLLFHLAGVPFEDERLTFGDGSWEKLKDKTPMGQMPVLNVDGFEIPQSAAITRYLARKFGFAGKTPEEEAWVDAVVDQFKDFFGEFRKLIIAQRAGKSVEEIEKLTKEVINPAVSSFFKILNGLLEKSKSGYLIGDSITFADLFIAEDMQSLKNFGFLNATEQPKIAAHLEKVYSHPKLKSYIASRPVTEI | not soluble |
| MGSDKIHHHHHHMNYNKLSSATIQGIEAMKIDVEVDFDNRSVFNDIDVVGLGDTAVKESRKRVKSAILNSGFSLPHGKYVVNLAPGDVRKEGSMLDLPIALCILASTGIVQVSENILAIGELSLNGEVKRVNGVLPVLLSLSEMFSGTVLIPKENEEEAKCVKELDIYAVESLRECVEFLRGDRTLKRIEYSGIENTNLEYEIDFSDVRDHEMVKRAVEIAVAGFHNILMVGNPGSGKTMIAKRIPTIFPPMSEEEILETSKVYSASGYPGIVKLRPFRAPHHTASTVSIIGGGTNPRPGEISLAHNGVLFLDELPEFKRDVLEALRQPLEEGIVTVARAKFTVTYPARFMLVGAMNPCPCGNLGDPKQPCVCSPRDIMRYRKKISGPLLDRMDLVINVPKLSFEEMMKKPEGEKSSSIRERVMKAREIQKRRFRDTHISCNSQMSHRMLRRFVQLDEKSEDLLKRYVERYGLSGRKIDKVLKISRTIADLEGSNGVEMSHLAEALQYRFRES | not soluble |
| MTKVIAITGKGGTGKTAVAALLIRSLSKKGQFILAVDADADTNLPETLGCENVKTIGDAKEFLQAEITKPRPDNPDMNKESVLQSKVYEIIEEMPGYDLLVMGRPEGSGCYCYVNNLLRGIMDKLVKNYDLVVIDAEAGLEHFSRKIIRDIDDLIVVTDASRRGFRTAERIHELVNELESNIGSIHVIANKVTDANREKLVKLAEELKLNLIGMIPLDPKIEEMDIKGIPLFEIPDDSVAAVEIENIVKKLGF | not soluble |
| KHLPQILCEAMTREAETMAMPDPKLPEEINRTFMQTYADVEQLVPPAKVDRHGSVCIYLPSPASSEEAEANLSWEEQILQDLPRFIIGLQKRGYAPSDIAILVRKTYQAREIARAMLSYQPEPDEEDYPLIPMSDESLSLSGAASIRFLSNLLKFISRPQSDALRQIAYLSYEELRKEKGLAPTEEGNFSAAELAEFANLRRRSLYELAEGLVSFFHSYLPEREMPYLIAWLDLINDFGHERSADLHSFLQWWDETGHAKSRISSAPNSQAVTLMTIHKAKGLGFRVVLIPFLDWNLDDEAAHRHILWCKIDPARSPFNILPVVPIRYKKEMAQTMFATDYFRERADILLDNLNLLYVATTRAKDEMHLWLHPSQKPESLSTVGDLIHLALASLDENKTESDMYCWGSPVISARQKTTDHPSSGLPFTLPKGSLSAVADRLAIRPEGSEFYRRHKPLYHGHVMHRILADIVLAKDIEPALERYVSGGIVTRDEAIELVDRLSVVTSDSRLSRWFDGSGRVLNEQDILLPEGEQRRPDRIILYDDHTDIVDYKFGAVRKVHHAQMENYIRLLVSMGYPSVRGYLWYLPNNEIVGVRSVRGITRSKGEERKEGKGERGIERKAK | not soluble |
| MSVSNKLGDLASKVYENVLLEEVKKYPRPRHIGIITDGNRRYARNVGISENEGHVKGKEKVEEVVDWCMELDIRIVTFYAFSTENFRRSPEEVDFLFHLIDNAFKSLLKDERVYKNRINVKVIGNLSILPAYLRQTIHIVEETTKNFNNYQLNLAIGYGGREEILDAIKRITRDAMDGKLNIDELDEEKFRMYLYDGRIPDPDLILRTSGEERISNFLLWQSAYSELYFSDVYWPEFSKLDFLRAIYSYQRRQRRFGR | soluble |
| NALRRDPNLPVHIRGWLHKQDSSGLRLWKRRWFVLSGHCLFYYKDSREESVLGSVLLPSYNIRPDGPGAPRGRRFTFTAEHPGMRTYVLAADTLEDLRGWLRALGRASRAEGDDYGQPRSPAR | soluble |
| MSLAPRQVNCILRTNEHTQEFFGGSVKSYDSNQLASNSPIEDSRSEASCVHTSGLLLGIFDGHGGPACSQVISKRLMRYIAASLVPPDDLRQHVLNGAQSFSFLSCHNDKARCGYEIKELYEKSFHQFANELTNTTLAGFQMHQTLENAFIRLDQDLSREAIEMPSLRTMSVAMSGAVALVAHIDGPHLHVASVGDCSAVLGTVTDTGQWMAKKLTNEHNSDNVGEVRRLLSEHPATERDTVIRGERLLGQLAPLRAMGDFRYKWSREQLEQLVVPQFGEQVIAPYYLTPPYLSACPEITHHILTPRDKFLIIASDGLWDTMSAMQTVHLVGEHMYGKAFLQPLTLPKQDITLGEISQMLTTRKAGLQKKPLDRNAATHLIRNALGGTEYGVEHSKLSHMLSLPQDIVRLFRDDITITVVYFDSEYLEGHHHHHH | not soluble |
| MNKVWLTGLLTATASGVFSASTLAATEITWWHAMGGQLGETVNQLATDFNASQSDYKLTPVYKGSYTETLTAGIAAFRAGQAPNILQVFDAGAATIMSSKGVAKPVQDLMIESGYPFTAQDYIAGVRNFYADNTGKMVGMPFNSSTPVLYYNKDMLASVNAQAPQTYEQLEQVAAKLAEKGQAGFAQSLTPWIMFENFKSRHNLPLSDKQNGYQDLSTKIMFNSDDMLMHVKKLKEWSDKGYYKYYGSDWDANQTPFERGEVAMWMGSSGSFGGLRNRVKFNLGTTYLPYWESVTKNPTHTFIGGAALFALQGHTPAQDKGVAAFFAYLTKPETQMNWHKTTGYVPVTNAAYDLTKQSGYYQENPDAEVGVKQLSLPDGEWTKGYRLGYYPQVREVMHREFDNIFSGRSTVESSLNKVEDESAKLLNRFARTVQ | not soluble |
| MTEQSAHEKYEFKKKLEGLRDKKGRSTELISLYIPPDKQIFDVTNQLKDEHGQAANIKSKLTRTNVQGAIESLLSRLRYLDKVPENGIVYFTGAVDIGANKTSMESEVIVPPDPITVYKYHCDSSFYLEPLEDMLKDKNTYGLLVLDRREATIGLLVGKRIQPFRNLTSTVPGKQRKGGQSAHRFQQLRLIAIHDFYKRIGDAASEVFMAVDHKDLKGVLIGGPSPTKEEFHAGEFLHHELMKKILGLFDTAYTDESGLSELVNAAGEKLQDLELMGQKNAVRDFFKELIADSGKVAYGESQVRANLEINSVDVLLLSEDLRAERVTTKCSVCGYENKWTRRWKPGEPAPAAGNCPKCGSSLEVTDVTDIVDEFSELADKSNAKVVFVSTDFDEGSQLMNAFGGIAAILRYNTGV | not soluble |
| AHHHHHHGSGASPVIVPVRCFTCGKVIGDKYYEFKRRVEAGEDPEKVLDDLGLERYCCRRMLLSHVELIDDIMHYRVY | not soluble |
| MHHHHHHSSGVDLGTENLYFQSNAMTNIQKRFYKGRVALNVLANNIENAKDIFEAAEGYVVVGVLSKDYPTVEEAVTAMKAYGKEIDDAVSIGLGAGDNRQAAVVAEIAKHYPGSHINQVFPSVGATRANLGEKDSWINSLVSPTGKVGYVNISTGPISAAGEEKAIVPIKTAIALVRDMGGNSLKYFPMKGLAHEEEYRAVAKACAEEGFALEPTGGIDKENFETIVRIALEANVEQVIPHVYSSIIDKETGNTKVEAVRELLAVVKKLVDQYA | soluble |
| MGHHHHHHSHMLSPERLALPDYEYLAQRHVLTYMEDAVCQLLENREDISQYGIARFFTEYFNSVCQGTHILFREFSFVQATPHNRVSFLRAFWRCFRTVGKNGDLLTMKEYHCLLQLLCPDFPLELTQKAARIVLMDDAMDCLMSFSDFLFAFQIQFYYSEFLDSVAAIYEDLLSGKNPNTVIVPTSSSGQHRQRPALGGAGTLEGVEASLFYQCLENLCDRHKYSCPPPALVKEALSNVQRLTFYGFLMALSKHRGINQALGALPDKGDLMHDPAMDEELERLLAQVPGLVNSVTASPEASCLPSRTPPRVGSPWRPLHHSRKVDGESDGSTEETDESET | not soluble |
| MGSDKIHHHHHHMVKYMKIVGITDLHGKLPPAVREFKDFADVLVVCGDITHFGKGIEVIEKLAELSDYMEVLCVPGNCDTKEVIDELNSFKLNIDRKVKKIENINFVGIGGSNKTPFNTPNEYTEEEIYNKLINVVKNLKNIFLVSHAPPYNTMADIVDLDKDIHVGSKSIRKIIEDFNENIRFCACGHIHESRCIDKIGNTIVVNPSPKSYFVYDTKKNMVVLDDFNGF | not soluble |
| MEEEEYEQIPQENPPEELSQDPVLELSGGLREKEQKTPRRLRLILMGKTGSGKSATGNSILGRDVFESKLSTRPVTKTSQRRSREWAGKELEVIDTPNILSPQVSPEVADAICQAIVLSAPGPHAVLLVTQLGRFTDEDQQVVRRLQEVFGVGVLGHTILVFTRKEDLAGGSLEDYVRETNNQALAWLDVTLARRHCGFNNRAQGEEQEAQLRELMEKVEAIMWENEGDYYSNKAYQYTQQNFRLKELQERQVSQGQGSEDVPGEESWLEGLSQIQKESEEAHRCLLGKADL | soluble |
| MNKSESRYYATAARMDEAFLTLLAKKDFEYITVKEICEVAGVNRSTFYLHYETMSDLLSESISRINEQFLAYMEKDSDAFSAKLRNCPRDELYLITPDYLTPYLSYIKNNKRLFRTATENAAVLGMDKSYDRMFRHVFTPILDRYGVLQQDRPYIMAFYIRGLMAIISEWLKNDCTDSITYVTGVIQQCVKMPQSETMNAV | not soluble |
| MKIMGFYSQVILPRLLDWSLSDPTLATYRQELLTDVTGEVLEIGFGTGLNLAYYPSHIHKITTVDVNPGMNTIAQKRIDDSGIKVQQLLLSGENLPMADNTFDSVVSTWTLCSIANVEQALQEVYRVLKPGGKFFFLEHGLSNKPNVQVWQNRLTPIQKVLADGCHLNRNIQQLVEQSFDHVELKRFTPENFPDLMAHFYKGCATKKSILEHHHHHH | soluble |
| MSLKRIRPLDPDVVNKIAAGEIIVAPMHALKELIENAVDAGSTSIEVLVKDGGMKLLQITDNGHGIDRDDLPILCERFTTSKLKQFEDLSSIGTYGFRGEALASISHIAHLTVTTKTAGSSCAWRAHYSDGKLVPPKPGQSAEPKATAGRGGTQITVEDLFYNVPTRRRAFRSASEEYAKILDVVGRYAVHCSGVAFSCRKHGESGAGISTPAAANTTDRIRQIHGSAVANELVEFQVEDSKLGFRSSGLVTNANYHVKRTVIMLFINHRSVESTAIKRAVEQTYSSFLPKGGHPFVYIDLEIEPHRVDVNVHPTKREVNFLNEDDIIESICSEIRSKLAQEGHHHHHH | soluble |
| MSLVRNMTIASELGYLHVPEGVLIDLKKVDSLRDDEIVLMCTGSQGEPMAALSRMANGDHKVQVGHGDTVILASSLIPGNENAVFRIINGLTRLGARVVHGGNAKVHVSGHASAGELLYCYNVLKPKNVMPVHGEVRHLVANGALAVRTGVPADRVVLAEDGVVVDLVDGRASVVGAVPCGYVYVDGSSVGEITDAELKDRRILGEEGFVSVFAVVDSATGKVLAGPQILARGFAEDDKVFQDIQPEVVKALEDAIAGGATDTHQLQQVMRRVIGRWVSNRLRRRPMIVPVVVEAEGHHHHHH | soluble |
| MTDQVFGKVSKVVCVGAGYVGGPTCAMIAHKCPHITVTVVDMNTAKIAEWNSDKLPIYEPGLDEIVFAARGRNLFFSSDIPKAIAEADLIFISVNTPTKMYGRGKGMAPDLKYVESVSRTIAQYAGGPKIVVEKSTVPVKAAESIGCILREAQKNNENLKFQVLSNPEFLAEGTAMKDLANPDRVLIGGESSPEGLQAVAELVRIYENWVPRNRIITTNTWSSELSKLVANAFLAQRISSINSISAVCEATGAEISEVAHAVGYDTRIGSKFLQASVGFGGSCFQKDVLSLVYLCESLNLPQVADYWQGVININNWQRRRFADKIIAELFNTVTDKKIAIFGFAFKKNTGDTRESSAIHVIKHLMEEHAKLSVYDPKVQKSQMLNDLASVTSAQDVERLITVESDPYAAARGAHAIVVLTEWDEFVELNYSQIHNDMQHPAAIFDGRLILDQKALREIGFRTFAIGTSPDQAYNLFGTAGY | soluble |
